For one molecule, stoichiometry N results are on record in paper PMC8764063.

In the test the target is T1, IRF3 (human (endogenous in U2OS)), Q14653.
T1 chain: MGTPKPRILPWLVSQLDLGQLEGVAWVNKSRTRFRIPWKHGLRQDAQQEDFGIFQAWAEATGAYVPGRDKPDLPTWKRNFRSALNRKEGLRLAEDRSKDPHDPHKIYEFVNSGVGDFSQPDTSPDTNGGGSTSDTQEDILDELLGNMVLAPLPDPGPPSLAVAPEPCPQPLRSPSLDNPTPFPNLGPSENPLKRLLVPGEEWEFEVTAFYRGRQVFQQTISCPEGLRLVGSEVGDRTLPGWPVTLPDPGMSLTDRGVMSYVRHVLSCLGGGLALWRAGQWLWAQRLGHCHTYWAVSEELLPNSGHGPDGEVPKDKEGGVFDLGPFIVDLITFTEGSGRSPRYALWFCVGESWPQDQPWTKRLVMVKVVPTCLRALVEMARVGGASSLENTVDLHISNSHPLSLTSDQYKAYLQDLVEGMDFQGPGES
Description: native gel or EMSA; native gel and Western blot for IRF3 of lysates (TBS lysis buffer: 20 mM Tris pH 7.5, 150 mM NaCl, 0.5% NP-40) of wild-type, PARP1 D214N or PARP1 KO U2OS cells with or without poly(dA-dT) (5 ug/ml, six hours); monomer to dimer. Conditions: remark: other sources report otherwise. (In general: Mobility shift assays separate free from complexed probe on a gel.)

B1: IRF3, Q14653 1-427 (natural protein)
chain: MGTPKPRILPWLVSQLDLGQLEGVAWVNKSRTRFRIPWKHGLRQDAQQEDFGIFQAWAEATGAYVPGRDKPDLPTWKRNFRSALNRKEGLRLAEDRSKDPHDPHKIYEFVNSGVGDFSQPDTSPDTNGGGSTSDTQEDILDELLGNMVLAPLPDPGPPSLAVAPEPCPQPLRSPSLDNPTPFPNLGPSENPLKRLLVPGEEWEFEVTAFYRGRQVFQQTISCPEGLRLVGSEVGDRTLPGWPVTLPDPGMSLTDRGVMSYVRHVLSCLGGGLALWRAGQWLWAQRLGHCHTYWAVSEELLPNSGHGPDGEVPKDKEGGVFDLGPFIVDLITFTEGSGRSPRYALWFCVGESWPQDQPWTKRLVMVKVVPTCLRALVEMARVGGASSLENTVDLHISNSHPLSLTSDQYKAYLQDLVEGMDFQGPGES
The term stoichiometry N denotes a count of units in the complex or per binding partner. Regarding B1, the stoichiometry N was determined as 2.
